According to paper PMC11959585, “Modular Nanoparticle Platform for Solution-Phase Optical Sensing of Protein–Protein Interactions” (ACS Applied Optical Materials, 2025):

Key:
Details in all cases: both partners purified
[1] = target: T1, His-tagged PEX5 (1–113) (UniProt P50542 1-113); assay: solution-phase LSPR peak shift of nanoparticles (UV–vis); binding curve near equilibrium: PEX14 (16–80) titrated onto hPEX5 construct (0.015 μM) immobilised on nanobiosensors (~0.025 nM); 20 mM sodium phosphate, 100 mM NaCl, 0.025 wt % Tween 20, pH 7.9; fit with the Hill–Waud equation
T1 construct: cytosolic peroxisomal targeting protein PEX5, stretch of the intrinsically disordered N-terminal domain, residues 1-113; His-tagged samples were made with the pETM10 vector; also called hPEX5 (1–113); source: E. coli BL21 (DE3), purified (Ni-NTA, SEC); not shown: His6, N-terminal, kept

[2] = target: T2, His-tagged PEX5 (110–230) (UniProt P50542 110-230); assay: solution-phase LSPR peak shift of nanoparticles (UV–vis); kinetic: peak position scanned every 20–30 s for 25 min after manual addition of PEX14 to immobilised hPEX5 (PEX14:PEX5 10:1 for 1–113), exponential fit; ka and kd derived from kobs and KD; 20 mM sodium phosphate, 100 mM NaCl, 0.025 wt % Tween 20, pH 7.9
T2 construct: cytosolic peroxisomal targeting protein PEX5, stretch of the intrinsically disordered N-terminal domain, residues 110-230; His-tagged samples were made with the pETM10 vector; also called hPEX5 (110–230); source: E. coli BL21 (DE3), purified (Ni-NTA, SEC); not shown: His6, N-terminal, kept

[3] = target: T1, His-tagged PEX5 (1–113); assay: as above

B1: PEX14 (16–80) (domain or fragment, UniProt O75381 16-80, looked up)
chain: TPGSENVLPREPLIATAVKFLQNSRVRQSPLATRRAFLKKKGLTDEEIDMAFQQSGTAADEPSSL
notes: peroxisomal membrane-associated import protein PEX14, globular N-terminal domain, residues 16-80; also called globular N-terminal domain of PEX14; source: E. coli BL21 (DE3), purified (Ni-NTA, TEV cleavage, reverse Ni column, SEC); not shown: His6, N-terminal, cleaved
In the case of B1, the Kd [1] is reported as 289 nM, the “ka near the first inflection point” value [2] is reported as 12400 M^–1 s^–1 and the “kd near the first inflection point” value [2] is reported as 0.00212 s^–1. The koff [3] was 0.00262 s⁻¹ and the kon [3] was 9060 M⁻¹ s⁻¹.
